Source: IntAct's records for PubMed 24525234

B1: Rho guanine nucleotide exchange factor 2 (Mus musculus), Q60875 (parent)
chain: MSRIESLTRARIDRSKEQATKTREKEKMKEAKDARYTNGHLFTTISVSGMTMCYACNKSITAKEALICPTCNVTIHNRCKDTLANCTKVKQKQQKAALLRNNTALQSVSLRSKTTTRERPTSAIYPSDSFRQSLLGSRRGLSSLSLAKSVSTTNIAGHFNDESPLGLRQILSQSTDSLNMRNRTLSVESLIDEGVEVFYNELMSDFEMDEKDFEADSWSLAVDSSFLQQHKKEVMKKQDVIYELIQTELHHVRTLKIMTRLFRTGMLEELQMEPEVVQGLFPCVDELSDIHTRFLNQLLERRRQALCPGSTRNFVIHRLGDLLISQFSGSNAEQMRKTYSEFCSRHTKALKLYKELYARDKRFQQFIRKMTRSAVLKRHGVQECILLVTQRITKYPVLINRILQNSHGVEEEYQDLASALGLVKELLSNVDQDVHELEKEARLQEIYNRMDPRAQTPVPGKGPFGRDELLRRKLIHEGCLLWKTATGRFKDVLLLLMTDVLVFLQEKDQKYIFTSLDKPSVVSLQNLIVRDIANQAKGMFLISSGPPEMYEVHAASRDDRTTWIRVIQQSVRLCPSREDFPLIETEDKAYLRRIKTKLQQKNQALVELLQKNVELFAEMVHFQALKAGFVGMPPPALPRGLFRLESFESLRGERLLKDALREVEGLKDLLLGPCVDLPMTSREPALPLDSDSGSCPGVTANGEARTFNGSIELCRADSDSSQKDRNGNQLRSPQEEVLQPLINLYGLLHGLQAVVVQQERLMEALFPEGPERWEKLSRANSRDGEAGRAAVASVTPEKQATELALLQRQHTLLQEELRRCQRLGEERATEAGSLEARLRESEQARALLEREAEEIRRQLAALGQNEPLPAEAPWARRPLDPRRRSLPAGDALYLSFNPPQPSRGHDRLDLPVTVRSLHRPFDDREAQELGSPEDRLQDSSDPDTGSEEEVSSRLSPPHSPRDFTRMQDIPEETESRDGEPTASES

Variants of: B1
Settings: with rhoa_human RHOA

Row | effect of a mutation on the interaction | Variant
1 | disrupting interaction | E243K
